{"source": "patent US20240117011A1", "target": "full-length SARS-CoV-2 spike, WA-1 / Wuhan-1 (S wt) (SARS-CoV-2) (UniProt P0DTC2)", "experiment": "cell-based or functional assay"}
{"substance": "LY-CoV555 (antibody)", "values": [{"measurement": "pseudotyped virus neutralization IC50", "result": 7.1, "unit": "ng/mL"}, {"measurement": "pseudotyped virus neutralization IC80", "result": 0.0357, "unit": "µg/mL"}]}
